Laboratory results: the supplement of paper PMC9112550, “Optimization of the antimicrobial peptide Bac7 by deep mutational scanning” (BMC Biology, 2022)

System: Escherichia coli TOP10
Test: shrunken log2 fold change of peptide-encoding DNA abundance (4.5 h post-induction vs induction); higher = less antimicrobial activity (less host growth inhibition)
Details: time post-induction: 4.5 h; library: site-saturation at positions 5, 18, 19, 20
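Also: peptides expressed intracellularly from a pBAD plasmid library in pooled LB shake-flask culture, induced with 0.3% L-arabinose, DNA abundance read by NGS, three biological replicates, DESeq2 with apeglm shrinkage.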

Sequence | shrunken log2 fold change
RRIRDRPPRLPRPRPRPGDAPRP | 0.207
RRIRLRPPRLPRPRPRPKFWPRP | 0.0752
RRIRNRPPRLPRPRPRPYHPPRP | -0.135
RRIRIRPPRLPRPRPRPNVLPRP | -0.349
RRIRFRPPRLPRPRPRPVLFPRP | -0.172
RRIRIRPPRLPRPRPRPCDQPRP | -0.021
RRIRNRPPRLPRPRPRPLSKPRP | -0.176
RRIRLRPPRLPRPRPRPHHRPRP | -0.263
RRIRSRPPRLPRPRPRPQFFPRP | -0.158
RRIRCRPPRLPRPRPRPAYLPRP | -0.247
RRIRGRPPRLPRPRPRPFGGPRP | 0.401
RRIRARPPRLPRPRPRPGLYPRP | -0.077
RRIRWRPPRLPRPRPRPVECPRP | 0.194
RRIRRRPPRLPRPRPRPVNYPRP | -0.291
RRIRKRPPRLPRPRPRPDILPRP | 0.0039
RRIRLRPPRLPRPRPRPKGYPRP | -0.146
RRIRYRPPRLPRPRPRPSNAPRP | -1
RRIRIRPPRLPRPRPRPSNEPRP | -0.945
RRIRSRPPRLPRPRPRPAEQPRP | 0.0415
RRIRYRPPRLPRPRPRPRAIPRP | -0.36
RRIRPRPPRLPRPRPRPIGSPRP | 0.0547
RRIRQRPPRLPRPRPRPDIGPRP | -0.0932
RRIRARPPRLPRPRPRPVLPPRP | 0.286
RRIRWRPPRLPRPRPRPSNFPRP | -0.391
RRIRTRPPRLPRPRPRPTTPPRP | 0.245

Sequence | shrunken log2 fold change
RRIRTRPPRLPRPRPRPHDWPRP | 0.213
RRIRYRPPRLPRPRPRPFDYPRP | -0.184
RRIRPRPPRLPRPRPRPTPAPRP | 0.618
RRIRKRPPRLPRPRPRPFFPPRP | 0.967
RRIRFRPPRLPRPRPRPDSLPRP | -0.204
RRIRSRPPRLPRPRPRPNCDPRP | -0.00648
RRIRKRPPRLPRPRPRPATDPRP | 0.00132
RRIRHRPPRLPRPRPRPHMRPRP | -0.00342
RRIRDRPPRLPRPRPRPLYAPRP | -0.122
RRIRHRPPRLPRPRPRPPMEPRP | -0.0615
RRIRQRPPRLPRPRPRPSLMPRP | -0.112
RRIRLRPPRLPRPRPRPQVVPRP | -0.252
RRIRIRPPRLPRPRPRPYCFPRP | -0.834
RRIRGRPPRLPRPRPRPTNVPRP | 0.141
RRIRKRPPRLPRPRPRPNNHPRP | -0.469
RRIRYRPPRLPRPRPRPAQYPRP | -0.562
RRIRDRPPRLPRPRPRPGWPPRP | 0.514
RRIRPRPPRLPRPRPRPFGYPRP | -0.24
RRIRMRPPRLPRPRPRPSHCPRP | 0.0171
RRIRTRPPRLPRPRPRPLAGPRP | 0.0232
RRIRTRPPRLPRPRPRPCHMPRP | -0.0872
RRIRNRPPRLPRPRPRPHSDPRP | 0.0373
RRIRVRPPRLPRPRPRPQRNPRP | -0.0128
RRIRHRPPRLPRPRPRPTSYPRP | -0.178
RRIRTRPPRLPRPRPRPVPAPRP | 0.35

Sequence | shrunken log2 fold change
RRIRERPPRLPRPRPRPISVPRP | -0.137
RRIRKRPPRLPRPRPRPIRDPRP | -0.016
RRIRYRPPRLPRPRPRPRSTPRP | -0.156
RRIRARPPRLPRPRPRPSSKPRP | -0.134
RRIRARPPRLPRPRPRPRWGPRP | 0.425
RRIRMRPPRLPRPRPRPEIIPRP | 2.84
RRIRHRPPRLPRPRPRPTIWPRP | -0.284
RRIRHRPPRLPRPRPRPSAIPRP | -0.00669
RRIRRRPPRLPRPRPRPANFPRP | -0.0416
RRIRTRPPRLPRPRPRPNTVPRP | -0.305
RRIRIRPPRLPRPRPRPGYFPRP | -0.904
RRIRQRPPRLPRPRPRPDPCPRP | -0.243
RRIRQRPPRLPRPRPRPKIGPRP | -0.0543
RRIRPRPPRLPRPRPRPQFNPRP | -0.5
RRIRSRPPRLPRPRPRPENLPRP | 0.026
RRIRERPPRLPRPRPRPSMAPRP | -0.192
RRIRPRPPRLPRPRPRPMHYPRP | -0.336
RRIRVRPPRLPRPRPRPQWAPRP | -0.0201
RRIRKRPPRLPRPRPRPCPQPRP | 0.242
RRIRIRPPRLPRPRPRPNLSPRP | -0.0917
RRIRRRPPRLPRPRPRPMKWPRP | 0.016
RRIRSRPPRLPRPRPRPTHPPRP | 0.298
RRIRDRPPRLPRPRPRPSAMPRP | 0.36
RRIRDRPPRLPRPRPRPCNPPRP | -0.13
RRIRIRPPRLPRPRPRPHFAPRP | -0.135

Sequence | shrunken log2 fold change
RRIRCRPPRLPRPRPRPVKTPRP | -0.132
RRIRMRPPRLPRPRPRPVIIPRP | -0.331
RRIRIRPPRLPRPRPRPAPCPRP | -0.0838
RRIRLRPPRLPRPRPRPREGPRP | 0.966
RRIRQRPPRLPRPRPRPSGFPRP | -0.102
RRIRIRPPRLPRPRPRPWDDPRP | -0.391
RRIRARPPRLPRPRPRPPNCPRP | 0.354
RRIRKRPPRLPRPRPRPEMTPRP | 2.82
RRIRERPPRLPRPRPRPMAFPRP | 0.099
RRIRFRPPRLPRPRPRPIQPPRP | 0.137
RRIRSRPPRLPRPRPRPSEVPRP | -0.015
RRIRTRPPRLPRPRPRPGHCPRP | -0.0671
RRIRYRPPRLPRPRPRPLQDPRP | 0.0382
RRIRTRPPRLPRPRPRPQLCPRP | -0.0792
RRIRVRPPRLPRPRPRPCPRPRP | 0.368
RRIRNRPPRLPRPRPRPCLPPRP | -0.217
RRIRIRPPRLPRPRPRPTILPRP | -0.248
RRIRERPPRLPRPRPRPERLPRP | 0.171
RRIRQRPPRLPRPRPRPQARPRP | -0.0121
RRIRHRPPRLPRPRPRPRAIPRP | 0.0852
RRIRERPPRLPRPRPRPKPRPRP | 0.467
RRIRFRPPRLPRPRPRPPSLPRP | -0.112
RRIRKRPPRLPRPRPRPYQPPRP | -0.191
RRIRARPPRLPRPRPRPFVPPRP | -0.0963
RRIRQRPPRLPRPRPRPDWCPRP | -0.229

Sequence | shrunken log2 fold change
RRIRLRPPRLPRPRPRPPTVPRP | 0.026
RRIRIRPPRLPRPRPRPKQWPRP | -0.0255
RRIRMRPPRLPRPRPRPHTDPRP | 0.0445
RRIRPRPPRLPRPRPRPEIIPRP | -0.0816
RRIRERPPRLPRPRPRPHQEPRP | 0.0187
RRIRNRPPRLPRPRPRPHAAPRP | 0.545
RRIRKRPPRLPRPRPRPWHSPRP | 0.0422
RRIRTRPPRLPRPRPRPENVPRP | -0.0181
RRIRGRPPRLPRPRPRPAYPPRP | -0.0884
RRIRGRPPRLPRPRPRPYCGPRP | -0.349
RRIRFRPPRLPRPRPRPFNNPRP | -0.262
RRIRNRPPRLPRPRPRPEYVPRP | -0.05
RRIRFRPPRLPRPRPRPYFSPRP | -0.245
RRIRPRPPRLPRPRPRPIFKPRP | -0.0374
RRIRVRPPRLPRPRPRPALVPRP | 0.464
RRIRVRPPRLPRPRPRPDILPRP | 0.3
RRIRYRPPRLPRPRPRPTKKPRP | 0.113
RRIRWRPPRLPRPRPRPPLIPRP | -0.0843
RRIRYRPPRLPRPRPRPPNMPRP | -0.863
RRIRWRPPRLPRPRPRPTWDPRP | 0.395
RRIRARPPRLPRPRPRPSMFPRP | 0.00699
RRIRVRPPRLPRPRPRPFLCPRP | -0.0159
RRIRCRPPRLPRPRPRPVDYPRP | -0.258
RRIRNRPPRLPRPRPRPKTTPRP | 0.118
RRIRQRPPRLPRPRPRPMCAPRP | 0.195
